Tests used:
[1] = test system: MAO B; experiment: [^14 C] FAD incorporation into wild-type or mutant MAO B in Rib^- COS-7 cells (immunoprecipitation, fluorography); format: binding, human; details: about 59 kDa; equal MAO B concentrations
Description: (§1) Mutagenesis was carried out by the method of Deng and Nickoloff (22) using a Transformer Site-directed Mutagenesis kit (Clontech). Glu in position 34 was replaced with Asp (E34D), Gln (E34Q), or Ala (E34A), and Val in position 10 was replaced with Ile (V10I) as described by Kwan et al. (18).
(§2) Wild-type or mutant MAO B cDNAs were transiently transfected into COS-7 cells by electroporation (23) as previously described (18). Briefly, Rib^+ - or Rib^- COS-7 cells were harvested during late log phase growth and resuspended to a concentration of 3.1×10^6 cells/ml in either riboflavin-containing or riboflavin-free medium, respectively. Wild-type or mutant MAO B cDNAs ([…]) were added to 0.8 ml of cell suspension. […] Electroporation was carried out in a Bio-Rad Gene Pulser with a setting of 250 V and 500 μF. Cells were resuspended in 15 ml of riboflavin-containing or riboflavin-free medium and incubated at 37° C. with 5% CO2. Transfected COS-7 cells were harvested at 48 hours and homogenized in a lysis solution containing 20 mM Tris-HCl, 1 mM EDTA, 0.5 mM PMSF, pH 8.0. The homogenate was diluted with an equal volume of the same buffer supplemented with 300 mM NaCl to obtain a 150 mM final NaCl concentration. Triton X-100 (Pierce) was added to the lysate to give a final concentration of 0.25%, and the samples were allowed to stir for 50 min. at 4° C. to extract MAO B from the outer mitochondrial membrane. After Triton extraction, the lysate was centrifuged at 1300×g for 5 min. at 4° C. to remove insoluble cell debris.
(§3) Transfected Rib^+ - or Rib^- COS-7 cells were homogenized, and extracted with 0.25% Triton X-100 for 50 minutes at 4° C. The cell lysates were centrifuged at 1300×g for 5 minutes, and an aliqout of each supernatant was analyzed for MAO B concentration by ELISA. All supernatants were then adjusted to equal MAO B concentration and incubated with polyclonal goat anti-MAO B antibody (10 μg) overnight at 4° C. Protein-G Sepharose beads (Pierce) were added (50 μl) and incubation was continued for 3 hours. The protein-G Sepharose/goat antibody/MAO B immmunocomplex was collected by centrifugation at 10,000×g for 20 seconds and washed 6 times with 150 μl of 20 mM Tris buffer, pH 8.0. The immunocomplex was then dissolved in SDS-PAGE sample buffer and analyzed by Western blot or fluorography.
(§4) The immunoprecipitated proteins (obtained as described above) were subjected to electrophoresis in a 10% SDS-polyacrylamide gel and examined by Western blotting as previously described (18). The immunoprecipitated proteins (obtained as described above) were subjected to electrophoresis in a 10% SDS-polyacrylamide gel. The SDS-PAGE gel was fixed by soaking in 7% acetic acid, 10% methanol, 83% H2 O for 1 hour, and then processed for fluorography as described by Bonner and Laskey (27). The dried gel was exposed to Kodak X-OMAT AR film at -80° C. for 2 weeks.
(§5) The expressed wild-type and variant MAO Bs were adjusted to equal concentrations using ELISA before immunoprecipitation, and then analyzed by fluorography. The amount of incorporation of [^14 C] […] FAD was incorporated into the enzyme.

[2] = target: T1, MAO B (Homo sapiens, UniProt P27338, E34D); experiment: as above; format: binding; details: densitometer
T1 construct: expressed in transfected cells; host or cells: Rib+ COS-7, transient
T1 sequence (P27338 2-520 E34D): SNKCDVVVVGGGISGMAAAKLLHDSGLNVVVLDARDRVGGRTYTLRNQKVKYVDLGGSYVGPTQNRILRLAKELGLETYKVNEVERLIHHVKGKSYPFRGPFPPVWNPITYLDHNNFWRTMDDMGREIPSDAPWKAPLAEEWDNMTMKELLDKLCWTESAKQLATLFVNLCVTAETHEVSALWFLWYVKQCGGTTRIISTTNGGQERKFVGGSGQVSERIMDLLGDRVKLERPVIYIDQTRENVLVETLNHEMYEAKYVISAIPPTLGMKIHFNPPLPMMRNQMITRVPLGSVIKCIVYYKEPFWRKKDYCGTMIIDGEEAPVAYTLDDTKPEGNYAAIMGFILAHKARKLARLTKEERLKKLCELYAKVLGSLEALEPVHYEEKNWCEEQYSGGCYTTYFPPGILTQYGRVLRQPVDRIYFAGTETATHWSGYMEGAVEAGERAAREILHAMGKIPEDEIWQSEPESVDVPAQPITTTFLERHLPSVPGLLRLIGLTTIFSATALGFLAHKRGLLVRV
Description: as §1, §2, §3, §4, §5

[3] = target: T1, MAO B; details: cited from earlier work

[^14 C] FAD incorporation, percent of wild-type [2]: about 10%
B1: E34D: MAO B with Glu in position 34 replaced with Asp (protein, UniProt P27338 2-520, looked up, variant E34D)
Amine oxidase …: T1 sequence (P27338 2-520 E34D)
[^14 C] FAD incorporation (band on fluorogram) [1]: faint band
reduction in activity ([3]; Rib^+ COS-7 cells): 93%
activity, % of wild-type activity [3]: 7%

Source: patent US5863776A, “Method of preparing apoenzyme” (Research Development Foundation, priority 1996, dated 1999)
